Measurements published in US20160168251A1 (MorphoSys, published 2016).

B1: 5064 Fab-dHLX (other)
VH: QVQLQQSGPGLVKPSQTLSLTCAISGDSVSSRSASWSWIRQSPGRGLEWLGRIYYRSKWYNDYAVSVKSRITINPDTSKNQFSLQLNSVTPEDTAVYYCARMDVPSFRYFDVWGQGTLVTVSS
VL: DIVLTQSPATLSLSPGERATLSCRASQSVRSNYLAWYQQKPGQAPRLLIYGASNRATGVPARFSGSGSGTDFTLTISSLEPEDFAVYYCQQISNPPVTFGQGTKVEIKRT
B2: 5064 IgG4_Pro (antibody, V domains shown)
VH: QVQLQQSGPGLVKPSQTLSLTCAISGDSVSSRSASWSWIRQSPGRGLEWLGRIYYRSKWYNDYAVSVKSRITINPDTSKNQFSLQLNSVTPEDTAVYYCARMDVPSFRYFDVWGQGTLVTVSS
VL: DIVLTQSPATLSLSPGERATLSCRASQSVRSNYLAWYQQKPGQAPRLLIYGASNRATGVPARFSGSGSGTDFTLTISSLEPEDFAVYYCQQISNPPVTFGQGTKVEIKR

What was measured:
[1] = biological target: T1, human NPRA on HEK293 cells, without added ligand (human, UniProt P16066 33-1061); experiment: FACS, HEK NPRA cells without ligand
T1 construct: a signal peptide is not delimited; also called HEK NPRA cells; HEK hNPRA cells
T1 sequence: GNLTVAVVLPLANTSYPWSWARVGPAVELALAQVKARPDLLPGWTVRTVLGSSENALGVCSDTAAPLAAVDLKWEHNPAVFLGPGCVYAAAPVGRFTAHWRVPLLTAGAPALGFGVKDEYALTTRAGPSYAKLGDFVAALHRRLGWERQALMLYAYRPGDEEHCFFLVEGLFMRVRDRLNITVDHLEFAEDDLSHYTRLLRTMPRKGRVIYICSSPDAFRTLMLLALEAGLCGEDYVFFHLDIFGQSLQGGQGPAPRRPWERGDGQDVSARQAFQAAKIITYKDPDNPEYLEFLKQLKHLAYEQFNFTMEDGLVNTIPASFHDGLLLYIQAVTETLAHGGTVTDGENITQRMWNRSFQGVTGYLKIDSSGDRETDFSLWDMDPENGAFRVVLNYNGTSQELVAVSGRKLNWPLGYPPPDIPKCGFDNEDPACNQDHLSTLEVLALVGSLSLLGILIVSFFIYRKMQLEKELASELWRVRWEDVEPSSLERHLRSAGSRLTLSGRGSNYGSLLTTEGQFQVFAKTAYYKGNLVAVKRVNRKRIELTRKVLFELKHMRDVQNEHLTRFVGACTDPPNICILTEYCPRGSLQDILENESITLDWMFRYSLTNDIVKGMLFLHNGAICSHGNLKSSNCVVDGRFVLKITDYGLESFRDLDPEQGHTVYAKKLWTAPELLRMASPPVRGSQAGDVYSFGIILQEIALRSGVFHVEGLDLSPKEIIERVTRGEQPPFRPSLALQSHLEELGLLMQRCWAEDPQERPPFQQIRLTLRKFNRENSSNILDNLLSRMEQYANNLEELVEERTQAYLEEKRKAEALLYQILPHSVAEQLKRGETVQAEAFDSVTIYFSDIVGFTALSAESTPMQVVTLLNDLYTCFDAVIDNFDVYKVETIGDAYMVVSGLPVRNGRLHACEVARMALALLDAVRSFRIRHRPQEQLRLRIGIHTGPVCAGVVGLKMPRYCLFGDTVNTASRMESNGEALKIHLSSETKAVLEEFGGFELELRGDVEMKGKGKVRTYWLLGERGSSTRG

[2] = biological target: T2, NPRA-Fc fusion protein, without ligand (human); experiment: ELISA on captured NPRA-Fc without ligand
T2 construct: also called NPRA-ECD-Fc; recombinant NPRA-Fc
T2 chain: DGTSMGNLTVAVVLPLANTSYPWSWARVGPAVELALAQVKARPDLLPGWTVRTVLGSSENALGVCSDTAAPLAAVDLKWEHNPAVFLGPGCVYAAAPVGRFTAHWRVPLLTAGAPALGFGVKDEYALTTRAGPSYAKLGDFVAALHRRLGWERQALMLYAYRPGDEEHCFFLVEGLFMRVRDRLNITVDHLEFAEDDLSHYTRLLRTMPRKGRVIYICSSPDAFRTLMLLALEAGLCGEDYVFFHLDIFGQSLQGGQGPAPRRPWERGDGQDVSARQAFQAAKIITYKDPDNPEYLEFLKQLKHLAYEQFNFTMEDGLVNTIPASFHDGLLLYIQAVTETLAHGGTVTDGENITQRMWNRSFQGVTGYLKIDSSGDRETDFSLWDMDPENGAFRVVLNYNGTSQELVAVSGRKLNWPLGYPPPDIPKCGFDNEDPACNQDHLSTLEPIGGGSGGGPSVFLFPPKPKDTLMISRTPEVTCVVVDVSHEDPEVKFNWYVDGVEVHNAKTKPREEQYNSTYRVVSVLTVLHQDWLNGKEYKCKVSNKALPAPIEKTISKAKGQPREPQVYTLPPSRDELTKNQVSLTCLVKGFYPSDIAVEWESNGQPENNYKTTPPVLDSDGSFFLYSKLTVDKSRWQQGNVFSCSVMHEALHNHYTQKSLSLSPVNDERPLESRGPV

[3] = biological target: T3, biotinylated ANP (UniProt P01160 124-151, biotin label (position not given)); experiment: binding to biotinylated ANP on streptavidin, ECL readout (legend: ELISA)
T3 construct: mature; Text: conjugated to Streptavidin beads; also called biotin-labeled ANP
T3 peptide (looked up): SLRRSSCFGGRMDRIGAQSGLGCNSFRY

[4] = biological target: T4, human NPRA on HEK293 cells bound to ANP (human, UniProt P01160 124-151); experiment: cell-based or functional assay
T4 sequence: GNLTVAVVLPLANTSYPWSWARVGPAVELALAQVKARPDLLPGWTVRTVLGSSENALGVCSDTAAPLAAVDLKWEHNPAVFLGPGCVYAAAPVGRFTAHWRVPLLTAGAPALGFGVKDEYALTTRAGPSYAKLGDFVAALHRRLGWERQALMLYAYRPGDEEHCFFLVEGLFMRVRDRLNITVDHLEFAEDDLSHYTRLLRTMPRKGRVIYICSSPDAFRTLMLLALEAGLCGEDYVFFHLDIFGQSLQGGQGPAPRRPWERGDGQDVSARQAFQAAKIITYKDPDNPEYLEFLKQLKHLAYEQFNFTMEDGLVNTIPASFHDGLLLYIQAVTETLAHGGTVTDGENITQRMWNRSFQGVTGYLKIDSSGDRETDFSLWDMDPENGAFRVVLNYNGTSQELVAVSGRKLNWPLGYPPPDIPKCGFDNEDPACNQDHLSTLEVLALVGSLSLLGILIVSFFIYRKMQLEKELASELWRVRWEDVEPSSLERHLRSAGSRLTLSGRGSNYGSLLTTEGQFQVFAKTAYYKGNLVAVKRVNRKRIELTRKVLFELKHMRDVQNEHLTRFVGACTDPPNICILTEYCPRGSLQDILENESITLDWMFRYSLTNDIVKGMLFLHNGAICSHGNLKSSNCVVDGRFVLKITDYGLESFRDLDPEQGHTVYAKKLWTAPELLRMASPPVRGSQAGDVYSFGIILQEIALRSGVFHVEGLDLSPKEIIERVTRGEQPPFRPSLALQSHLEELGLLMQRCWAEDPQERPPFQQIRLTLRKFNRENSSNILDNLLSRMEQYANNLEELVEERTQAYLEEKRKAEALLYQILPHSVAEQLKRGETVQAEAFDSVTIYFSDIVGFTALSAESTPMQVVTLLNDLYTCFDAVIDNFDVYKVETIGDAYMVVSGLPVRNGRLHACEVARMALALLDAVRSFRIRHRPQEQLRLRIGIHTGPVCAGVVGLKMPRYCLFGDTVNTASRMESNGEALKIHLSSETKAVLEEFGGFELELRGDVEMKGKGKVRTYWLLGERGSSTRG
T4 sequence (peptide): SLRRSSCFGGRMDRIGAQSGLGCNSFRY

[5] = biological target: T4, human NPRA on HEK293 cells bound to ANP; experiment: FACS, HEK NPRA cells loaded with 100 nM ANP
[6] = biological target: T5, human NPRC on HEK293 cells, without added ligand (human, UniProt P17342 27-541); experiment: FACS, HEK NPRC cells without ligand
T5 construct: whole, on cells; also called HEK NPRC cells; natriuretic peptide receptor C
T5 sequence (looked up): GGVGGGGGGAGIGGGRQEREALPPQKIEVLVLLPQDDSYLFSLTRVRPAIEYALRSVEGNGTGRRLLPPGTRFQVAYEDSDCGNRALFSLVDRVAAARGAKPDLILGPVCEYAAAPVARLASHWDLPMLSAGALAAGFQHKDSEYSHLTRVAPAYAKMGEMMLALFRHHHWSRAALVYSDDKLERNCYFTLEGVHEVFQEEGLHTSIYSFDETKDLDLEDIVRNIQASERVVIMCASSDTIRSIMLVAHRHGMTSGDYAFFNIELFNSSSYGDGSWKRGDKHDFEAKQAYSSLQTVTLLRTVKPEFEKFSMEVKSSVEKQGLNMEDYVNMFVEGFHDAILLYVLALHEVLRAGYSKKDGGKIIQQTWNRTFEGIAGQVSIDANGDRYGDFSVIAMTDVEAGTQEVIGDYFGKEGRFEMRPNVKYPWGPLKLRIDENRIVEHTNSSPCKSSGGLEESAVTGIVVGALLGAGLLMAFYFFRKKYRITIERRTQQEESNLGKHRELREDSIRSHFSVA
Description: (§1) HEK NPRA cells are detached with Accutase (PAA Laboratories GmbH, Cat. No. L11-007, Austria), harvested by centrifugation (900 rpm, 4 minutes) and resuspended in FACS buffer (PBS/3% FCS/0.02% NaN3) to a final concentration of 10⁶ cells/ml. 100 μl of the cell suspension is transferred to each well of a 96 round bottom plate (TC Microwell 96U, Nunc). […] Cells are washed in 150 μl of FACS buffer, pelleted and resuspended in 50 μl of the solution containing the primary antibody comprising a BEL extract of Fabs, a diluted BEL extract or purified antibody diluted in FACS buffer and incubated on ice for 30 min. Cells are washed again in FACS buffer and resuspended in 50 μl of FACS buffer containing the secondary antibody (R-Phycoerythrin-conjugated Affipure F(ab′)₂ Fragment Goat Anti-Human IgG, Dianova) and incubated on ice for 45 min. Cells are washed twice with FACS buffer and resuspended in 200 μl of FACS buffer for analysis in the FACS Array (BD Biosciences).

[7] = biological target: T6, human NPRC on HEK293 cells in the presence of ANP (human, UniProt P17342 27-541; P01160 124-151); experiment: FACS, HEK NPRC cells with 100 nM ANP
T6 construct: whole, on cells;mature; also called HEK NPRC cells + 100 nM ANP
T6 sequence (looked up): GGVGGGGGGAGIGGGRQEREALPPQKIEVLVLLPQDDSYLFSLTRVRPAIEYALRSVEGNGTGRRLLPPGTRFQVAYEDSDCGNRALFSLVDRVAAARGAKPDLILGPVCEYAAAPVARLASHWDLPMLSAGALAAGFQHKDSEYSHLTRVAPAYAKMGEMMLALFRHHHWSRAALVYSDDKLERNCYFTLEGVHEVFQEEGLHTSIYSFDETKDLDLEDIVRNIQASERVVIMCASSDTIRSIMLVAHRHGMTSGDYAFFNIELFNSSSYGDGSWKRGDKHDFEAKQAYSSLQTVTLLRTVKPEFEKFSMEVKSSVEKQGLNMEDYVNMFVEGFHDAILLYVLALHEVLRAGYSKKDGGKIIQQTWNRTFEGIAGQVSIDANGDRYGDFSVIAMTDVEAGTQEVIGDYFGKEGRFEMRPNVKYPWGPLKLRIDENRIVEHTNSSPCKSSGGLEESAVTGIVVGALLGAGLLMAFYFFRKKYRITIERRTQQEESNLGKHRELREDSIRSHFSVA
T6 sequence (peptide, looked up): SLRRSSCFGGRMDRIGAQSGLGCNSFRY
Description: as §1

[8] = biological target: T7, human NPRC on HEK293 cells in the presence of BNP (human, UniProt P17342 27-541; P16860 103-134); experiment: FACS, HEK NPRC cells with 100 nM BNP
T7 construct: whole, on cells;mature; also called HEK NPRC cells + 100 nM BNP
T7 sequence (looked up): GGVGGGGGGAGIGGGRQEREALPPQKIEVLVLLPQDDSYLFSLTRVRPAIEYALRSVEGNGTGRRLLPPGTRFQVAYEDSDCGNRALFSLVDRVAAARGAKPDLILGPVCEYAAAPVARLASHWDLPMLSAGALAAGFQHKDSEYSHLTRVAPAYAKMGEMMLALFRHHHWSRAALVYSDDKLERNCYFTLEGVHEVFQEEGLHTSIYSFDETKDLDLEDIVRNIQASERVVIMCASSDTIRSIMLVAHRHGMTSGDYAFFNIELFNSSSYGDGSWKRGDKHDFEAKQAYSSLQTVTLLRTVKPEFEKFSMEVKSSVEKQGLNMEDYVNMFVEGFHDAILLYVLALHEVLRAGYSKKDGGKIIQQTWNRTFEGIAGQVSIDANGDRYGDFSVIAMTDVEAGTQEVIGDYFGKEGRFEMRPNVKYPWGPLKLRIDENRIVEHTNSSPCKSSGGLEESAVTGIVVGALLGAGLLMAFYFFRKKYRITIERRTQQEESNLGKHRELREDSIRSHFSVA
T7 sequence (peptide, looked up): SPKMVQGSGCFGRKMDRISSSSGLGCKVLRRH
Description: as §1

[9] = biological target: T4, human NPRA on HEK293 cells bound to ANP; experiment: FACS, IgG4_Pro on HEK NPRA cells in the presence of 100 nM ANP
Description: as §1

Binder | binding result [1] | binding result [2] | binding result [3] | cGMP EC50 (nM), titration of the antibody on HEK NPRA cells with 200 pM ANP [4] | EC50 [5] | binding result [6] | binding result [7] | binding result [8] | EC50 [9]
B1 | no binding (tested: 20 µg/ml) | no binding (tested: 20 µg/ml) | no binding (tested: 10 nM) | – | – | – | – | – | –
B2 | – | – | – | 12.1 nM | 1.6 nM | no binding (tested: 20 nM) | no binding (tested: 20 nM) | no binding (tested: 20 nM) | 1.08 nM
